Source: patent US8221990B2, “Screening GPR12 receptor for substances having Nesfatin-1-like action, or which regulate Nesfatin-1 action” (Teijin Pharma Limited, priority 2007, dated 2012)

Assays:
mouse GPR12 = molecular target: T1, mouse GPR12 (Mus musculus, UniProt P35412); experiment: cAMP production in CHO-K1-cell stable expression system (CHO-K1-GPR12); type: cell-based; details: CHO-K1-GPR12, peptide 10^-9 M, Forskolin 10^-5 M, 30 minutes
T1 construct: expressed in transfected cells
T1 sequence (P35412 1-334): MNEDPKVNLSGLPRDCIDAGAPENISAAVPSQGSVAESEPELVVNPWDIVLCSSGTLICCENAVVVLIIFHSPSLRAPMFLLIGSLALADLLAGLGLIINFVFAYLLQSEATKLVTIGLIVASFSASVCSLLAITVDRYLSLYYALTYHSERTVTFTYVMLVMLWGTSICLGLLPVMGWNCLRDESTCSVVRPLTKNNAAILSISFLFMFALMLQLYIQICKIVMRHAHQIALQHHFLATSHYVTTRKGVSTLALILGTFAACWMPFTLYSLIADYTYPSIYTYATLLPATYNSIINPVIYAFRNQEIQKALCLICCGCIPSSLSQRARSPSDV
Experimental: The preparation of cells stably expressing GPR12 was conducted by a conventional method, and hereinafter described briefly. A vector (pcDNA3.1-GPR12) in which a gene (cDNA) encoding mouse GPR12 (SEQ ID NO: 8) was inserted at the downstream of a CMV promoter of pcDNA3.1 (TM) (Invitrogen Corporation) was prepared, 10 μg of the vector was mixed with 250 μL of medium OPTI-MEM™ (Invitrogen Corporation), and 10 μg of Lipofectamine™ 2000 Reagent (Invitrogen Corporation) was mixed with 250 μL of medium OPTI-MEM™, 5 minutes later both mixtures were mixed, and the resultant mixture was left over at room temperature for 20 minutes to prepare a transfection reagent. Chinese hamster ovary cells (CHO-K1) [ATCC Cat. No. CCl-61] plated onto a 6-well plate at 1.5×10^6 cells/well on the previous day in advance were washed with medium OPTI-MEM™ once, and the above-mentioned transfection reagent (vector and Lipofectamine™ 2000 Reagent) was added to the cells dropwise to perform transfection. The resultant transfected cells were incubated at 37° C. for 5 hours in a CO2 incubator, and then the medium was replaced by Ham's F12 medium. Further, the next day the medium was exchanged with Ham's F12 medium containing 100 μg/mL of Geneticin® (Invitrogen Corporation), and furthermore the next day the medium was exchanged with the same medium containing 200 μg/mL of Geneticin®, and the following day the medium was exchanged with the same medium containing 700 μg/mL of Geneticin®, and after that, culturing was continued under the conditions of 37° C. and 5% CO2 in a medium containing Geneticin® at the same concentration. […]
The measured intracellular cAMP level was evaluated in terms of a ratio (Fold) of each intracellular cAMP level with respect to the mean of the intracellular cAMP level in the (−) group that is set as unity, in which CHO-K1-GPR12 cells were cultured in the medium containing no peptide.

[1] = Amount of food intake in a mouse after intraperitoneal administration; type: in vivo; details: C57BL/6J male mouse, 0.25 nmol per gram of body weight, 0 to 3 hours
Experimental: A 7-week-old C57BL/6J strain male mouse (CLEA Japan, Inc.) was used as an experimental animal. After purchasing the mouse, the mouse was raised at 22° C. in cycles of the 12-hour light period from 6 a.m. to 6 p.m. and the 12-hour dark period from 6 p.m. to 6 a.m. on the next morning with free access to pelleted feed (CLEA Japan, Inc., CE-2).
A 5 nmol aliquot of Nesfatin-1M30 (Mid-segment, SEQ ID NO: 11), M30_Ag-A (SEQ ID NO: 50), or M30_MSH-A (SEQ ID NO: 51) was dissolved in each 100 μL of saline, and each of the resultant solutions was administered intraperitoneally to a C57BL/6J mouse at a dose of 0.25 nmol per gram of body weight of the mouse. In the control group, only saline (Vehicle) was administered. Each mouse (5 mice in each group) was intraperitoneally given a single injection of a sample using a tuberculin syringe with 26 G needle, immediately before the dark period (6 p.m.).
Each mouse administered was placed in an individual cage, and the amount of food intake was determined by measuring the decreased amount of the pelleted feed during the period from 0 to 3 hours after the administration of a test substance. In the mouse administered with each test sample, the amount of food intake during 3 hours after the administration (g/3 h) is shown in FIG. 6.

Nesfatin-1M30: mid-segment of Nesfatin-1, human-derived Nesfatin-1M30, SEQ ID NO: 11 (PDTGLYYDEYLKQVIDVLETDKHFREKLQK; listed as Homo sapiens)
intracellular cAMP level compared with the group (-) cultured in medium containing no peptide (mouse GPR12): about 5 fold
amount of food intake during 3 hours after the administration compared with control group (Vehicle) [1]: significant decrease of the food intake
